To fix the notation:
B1: Gal4AD-Rec104 [S. cerevisiae] / LexA-Rec102 [S. cerevisiae] (parent complex)
chain 1: MSIEEEDTNKITCTQDFLHQYFVTERVSIQFGLNNKTVKRINKDEFDKAVNCIMSWTNYPKPGLKRTASTYLLSNSFKKSATVSLPFILGDPVCMPKRVESNNNDTCLLYSDTLYDDPLIQRNDQAGDEIEDEFSFTLLRSEVNEIRPISSSSTAQILQSDYSALMYERQASNGSIFQFSSP
chain 2: MARDITFLTVFLESCGAVNNDEAGKLLSAWTSTVRIEGPESTDSNSLYIPLLPPGMLKIKLNFKMNDRLVTEEQELFTKLREIVGSSIRFWEEQLFYQVQDVSTIENHVILSLKCTILTDAQISTFISKPRELHTHAKGYPEIYYLSELSTTVNFFSKEGNYVEISQVIPHFNEYFSSLIVSQLEFEYPMVFSMISRLRLKWQQSSLAPISYALTSNSVLLPIMLNMIAQDKSSTTAYQILCRRRGPPIQNFQIFSLPAVTYNK

One assay covers variants of B1. The assay can be described thus: Y2H β-galactosidase assay; parent: 0.97; read off a plot.
As to chain 2 F11A, the response is ~0.9 normalized β-gal units.

As to chain 2 F156A, the response was ~1.5 normalized β-gal units.

For the variant chain 2 Q183A, the response was ~0.01 normalized β-gal units.

chain 2 S182A: the response is ~0.62 normalized β-gal units.

As to chain 2 L179A, the response was ~0.1 normalized β-gal units.

Consider chain 2 V10A, for which the response is ~0.6 normalized β-gal units.

In the case of chain 2 L8A, the response is ~1.4 normalized β-gal units.

The variants in another assay derive from B1. The assay is described as above. This is another data set of the same source.
On to chain 1 K10A, for which the response is ~0.83 normalized β-gal units.

Consider chain 1 F31A, for which the response was ~1.6 normalized β-gal units.

For the variant chain 1 L33A, the response is ~0.87 normalized β-gal units.

As for chain 1 T12A, the response was ~0.75 normalized β-gal units.

For chain 1 Y21A, the response was ~1.1 normalized β-gal units.

For the variant chain 1 F17A, the response is ~0.8 normalized β-gal units.

As for chain 1 I53A, the response was ~1.1 normalized β-gal units.

With chain 1 I11A, the response was ~0.93 normalized β-gal units.

As to chain 1 V50A, the response is ~1.2 normalized β-gal units.

Regarding chain 1 L18A, the response is ~0.75 normalized β-gal units.
